According to patent publication US20180298377A1 (RESEARCH FOUNDATION FOR THE STATE UNIVERSITY OF NEW YORK, published 2018):

Tests used:
Pdr5-F[3] = Pdr5-F[3] (S. cerevisiae, UniProt P33302 1-1511; P00375 107-187); test: cell-based or functional assay
Hxt1-F[3] = target: T1, Hxt1-F[3] (S. cerevisiae, UniProt P32465 1-570; P00375 107-187); test: cell-based or functional assay
T1 sequence (looked up): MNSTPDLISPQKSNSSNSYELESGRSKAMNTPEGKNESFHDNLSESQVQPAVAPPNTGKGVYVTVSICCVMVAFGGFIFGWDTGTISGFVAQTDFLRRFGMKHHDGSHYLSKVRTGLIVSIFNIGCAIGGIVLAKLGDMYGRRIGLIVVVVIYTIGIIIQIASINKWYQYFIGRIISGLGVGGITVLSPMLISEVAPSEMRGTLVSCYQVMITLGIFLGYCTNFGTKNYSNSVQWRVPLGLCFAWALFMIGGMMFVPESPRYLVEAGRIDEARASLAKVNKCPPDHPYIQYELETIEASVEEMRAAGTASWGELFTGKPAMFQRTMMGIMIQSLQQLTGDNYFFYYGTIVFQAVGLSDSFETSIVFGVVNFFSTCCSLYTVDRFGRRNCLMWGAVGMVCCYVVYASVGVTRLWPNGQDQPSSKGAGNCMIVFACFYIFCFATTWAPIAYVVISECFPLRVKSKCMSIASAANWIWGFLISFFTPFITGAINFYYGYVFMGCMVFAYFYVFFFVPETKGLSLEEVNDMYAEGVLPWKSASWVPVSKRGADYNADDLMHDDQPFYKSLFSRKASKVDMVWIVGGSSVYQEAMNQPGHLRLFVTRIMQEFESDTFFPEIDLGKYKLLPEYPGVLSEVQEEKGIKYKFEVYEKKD

Snq2-F[3] = Snq2-F[3] (S. cerevisiae, UniProt P32568 2-1501; P00375 107-187); test: cell-based or functional assay
Fpr1-F[3] = target: T2, Fpr1-F[3] (S. cerevisiae, UniProt P20081 2-114; P00375 107-187); test: cell-based or functional assay
T2 sequence (looked up): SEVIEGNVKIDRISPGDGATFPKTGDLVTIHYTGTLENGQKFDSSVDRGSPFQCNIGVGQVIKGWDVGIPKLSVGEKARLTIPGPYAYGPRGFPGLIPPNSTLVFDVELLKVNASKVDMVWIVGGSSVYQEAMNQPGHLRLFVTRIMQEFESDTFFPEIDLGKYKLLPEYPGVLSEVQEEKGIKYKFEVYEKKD

[1] = target: T3, Pdr5 split Renilla luciferase (Rluc) PCA fusion (S. cerevisiae, UniProt P33302 1-1511); test: split Renilla luciferase PCA, luminescence of yeast cells, 200 µM copper sulfate
T3 construct: whole, on cells; DHFR fragment of the Pdr5-F[3] strain replaced by an Rluc PCA fragment by homologous recombination; also called Pdr5 (Rluc PCA strain); not shown: linker of the pAG25/pAG32-linker-Rluc cassettes; Renilla luciferase PCA fragment; DHFR F[3] strains are said to receive Rluc F[1], but the next sentences call preys Rluc
T3 sequence (P33302 whole entry, the tested form may be a part): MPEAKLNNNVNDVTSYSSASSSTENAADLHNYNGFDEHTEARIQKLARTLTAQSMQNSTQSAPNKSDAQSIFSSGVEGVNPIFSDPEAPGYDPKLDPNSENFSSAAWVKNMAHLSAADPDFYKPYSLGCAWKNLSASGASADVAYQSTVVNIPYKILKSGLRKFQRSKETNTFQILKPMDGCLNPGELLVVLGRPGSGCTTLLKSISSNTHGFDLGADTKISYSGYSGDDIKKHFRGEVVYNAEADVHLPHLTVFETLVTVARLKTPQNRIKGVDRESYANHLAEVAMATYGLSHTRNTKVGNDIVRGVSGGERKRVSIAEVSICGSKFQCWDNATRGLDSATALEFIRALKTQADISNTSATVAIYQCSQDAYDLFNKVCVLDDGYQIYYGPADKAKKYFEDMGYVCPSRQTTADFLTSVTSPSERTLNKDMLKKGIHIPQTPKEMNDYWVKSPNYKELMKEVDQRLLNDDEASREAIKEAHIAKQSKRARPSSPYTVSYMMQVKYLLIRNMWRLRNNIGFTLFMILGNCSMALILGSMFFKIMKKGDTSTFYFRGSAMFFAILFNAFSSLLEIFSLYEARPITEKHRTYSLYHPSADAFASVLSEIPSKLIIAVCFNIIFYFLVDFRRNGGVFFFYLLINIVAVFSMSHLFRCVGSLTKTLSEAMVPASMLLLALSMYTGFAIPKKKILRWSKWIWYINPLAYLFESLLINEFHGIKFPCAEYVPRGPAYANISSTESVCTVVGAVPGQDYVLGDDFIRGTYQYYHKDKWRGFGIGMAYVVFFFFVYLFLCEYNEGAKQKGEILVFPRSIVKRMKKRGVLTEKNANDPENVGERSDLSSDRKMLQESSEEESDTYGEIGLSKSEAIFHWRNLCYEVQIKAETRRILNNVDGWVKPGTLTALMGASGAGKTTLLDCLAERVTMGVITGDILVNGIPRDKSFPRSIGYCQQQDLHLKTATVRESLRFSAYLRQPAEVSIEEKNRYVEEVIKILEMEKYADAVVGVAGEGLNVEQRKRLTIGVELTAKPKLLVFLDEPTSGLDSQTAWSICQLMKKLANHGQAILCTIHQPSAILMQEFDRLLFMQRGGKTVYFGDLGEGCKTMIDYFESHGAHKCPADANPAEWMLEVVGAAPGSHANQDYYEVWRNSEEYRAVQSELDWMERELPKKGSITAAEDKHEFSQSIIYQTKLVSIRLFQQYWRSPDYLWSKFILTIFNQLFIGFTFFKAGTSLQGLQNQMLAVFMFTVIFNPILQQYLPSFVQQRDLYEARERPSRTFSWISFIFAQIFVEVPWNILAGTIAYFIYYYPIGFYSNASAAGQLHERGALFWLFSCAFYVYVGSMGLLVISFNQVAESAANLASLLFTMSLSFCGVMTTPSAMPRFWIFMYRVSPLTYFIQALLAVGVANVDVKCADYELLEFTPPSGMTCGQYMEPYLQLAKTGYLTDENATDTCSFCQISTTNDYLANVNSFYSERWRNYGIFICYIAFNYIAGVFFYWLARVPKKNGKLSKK
Description: Triplicate fresh colonies of each diploid Rluc PCA strain were grown in 5 ml synthetic dextrose media supplemented with standard concentrations of histidine, leucine, and uracil at 30° C. for 24 h, then diluted 1:32 into 5 ml of the same media supplemented DMSO (0.5%), FK506 (50 μM), hydrogen peroxide (0.001%), sodium chloride (175 mM), or copper sulfate (200 μM). Cells were grown for 24 h at 30° C., diluted 1:32 again into fresh media containing the same supplement, and grown for another 6 h. Cells were counted, and 1-2×10⁷ cells were pelleted, and resuspended in 180 ul phosphate-buffered saline (PBS), pH 7.2 containing 1 mM EDTA. Cells were transferred to white 96-well flat bottom plates (Greiner bio-one #655075). The luciferase substrate, benzyl coelenterazine (Nanolight #301), was diluted 1:10 from the stock (2 mM in absolute ethanol) using 1×PBS, and 20 ul of diluted substrate was added to each sample (to a final concentration of […]). A Centro LB 960 microplate luminometer (Berthold Technologies) was used to measure the Rluc PCA signal, which was integrated for 10 seconds. Changes in luminescence in response to a specific condition were calculated by the following equation: luminescencecondition/luminescenceDMSO.

B1: Ftr1-F[1,2] (other, UniProt P40088 1-404, looked up, not shown: small tags and cut ends)
chain: MPNKVFNVAVFFVVFRECLEAVIVISVLLSFLKQAIGEHDRALYRKLRIQVWVGVLLGFIICLAIGAGFIGAYYSLQKDIFGSAEDLWEGIFCMIATIMISMMGIPMLRMNKMQSKWRVKIARSLVEIPHRKRDYFKIGFLSRRYAMFLLPFITVLREGLEAVVFVAGAGITTQGSHASAYPLPVVVGLICGGLVGYLLYYGASKSSLQIFLILSTSILYLISAGLFSRGAWYFENYRFNLASGGDASEGGDGNGSYNIRKAVYHVNCCNPELDNGWDIFNALLGWQNTGYLSSMLCYNIYWLVLIIVLSLMIFEERRGHLPFTKNLQLKHLNPGYWIKNKKKQELTEEQKRQLFAKMENINFNEDGEINVQENYELPEQTTSHSSSQNVATDKEVLHVKADSLVRPLNCIVAVSQNMGIGKNGDLPWPPLRNEFKYFQRMTTTSSVEGKQNLVIMGRKTWFSIPEKNRPLKDRINIVLSRELKEPPRGAHFLAKSLDDALRLIEQPEL
Pdr5-F[3]
  fitness (PPiSeq, MTX(+), benign environment, relative to control strain lacking mDHFR fragments): 0.1

B2: Shr3-F[1,2] (other, UniProt Q02774 1-210, looked up, not shown: small tags and cut ends)
chain: MFSYSDFCSIGTAMILSATTFLMGVFFSNMPYDYHLLFNPNSTQEHFDLALRHYQILHETPLPVIVTLCVVAGIGLVGGTIKVFKPNPELQMFEYCSLGLYVLAICVFLTNVKTGIDCSVSHNWGEVTENQGLAVIASSNIILLVMFAGVIILQIGLWYSNWDLQKRLKEFYAQEEREAANAGKKTEKVDNAKKNDNKSKGAQKRKNAKKVRPLNCIVAVSQNMGIGKNGDLPWPPLRNEFKYFQRMTTTSSVEGKQNLVIMGRKTWFSIPEKNRPLKDRINIVLSRELKEPPRGAHFLAKSLDDALRLIEQPEL
Hxt1-F[3]
  fitness (PPiSeq, MTX(+), benign environment): 0.1

B3: Tpo1-F[1,2] (other, UniProt Q07824 1-586, looked up, not shown: small tags and cut ends)
chain: MSDHSPISNKENHLLPSDSSRSSSSDMHSTGTTGTTGVEPVDFTGEGAKYTTATEGNGGADLAIQRTTTMNSAAESEVNITRRLTKILTGSVNEPDRVEVDYTNCAPMGGDRPYPPSLPSRDLYEVTFDGPNDPLHPFNWPMKKKVLLCLVLCLDSIAIAMCSSIFASAVPQICEIYHVIEVVAILGITLFVLGFAASPVIYAPLSELYGRKGVLVLSAFGFALFQFAVATAENLQTIFICRFFGGFIGAAPMAVVPAAFADMFDTNVRGKAIALFSLGVFVGPILSPVMGSYIAQRTTWRWLEYVVGCFASAVFVAIVLFFEETHHPTILVNKAKQMRKQSNNWGIHAAHEDVELSIKDIVQKTVTRPIIMLFVEPLLLFVTIYNSFVYGILYLLLEAYPLVFVEGYGFTENGELPYIALIIGMMVCAAFIWYMDNDYLKRCRAKGKLVPEARLYAMVIAGTVFPIGILWFCWTGYYPHKIHWMVPTVGGAFIGFGLMGIFLPCLNYIIESYLLLAASAVAANTFMRSAFGACFPLFAGYMFRGMGIGWAGLLLGLFAAAMIPVPLLFLKYGESIRKKSKYAYAAVRPLNCIVAVSQNMGIGKNGDLPWPPLRNEFKYFQRMTTTSSVEGKQNLVIMGRKTWFSIPEKNRPLKDRINIVLSRELKEPPRGAHFLAKSLDDALRLIEQPEL
Snq2-F[3]
  fitness (PPiSeq, MTX(+), benign environment): 0.08

B4: Fmp45-F[1,2] (other, UniProt Q07651 1-309, looked up, not shown: small tags and cut ends)
chain: MIFKRFVNLLVFLFLLGAGLLTFFLILSGGRESGTLKNFYWLQADTNGFNSAPSTTRWYNYNWCGYEDGQLANCSSRAPAKPFSPRDNFGNSVNLPSSFRNNRDTYYYLSRVGWAMLLISLFFIVLALVPGFLATFLPFKAVPVLYCVLSWLAFFFIILAACLYTGCYVKARKTFRNSGRSARLGPKNFAFIWTSVFLMLVNAIWSTIFSATHKAHSTYSDHDMYAQYESPSVDTGAQMEKSTYNSGATDGAGPITAAPVVGQPQPTTTTTPAGNGKFFQKLKTRKQVPSAELEPAGDGGLAGPVTVRDVRPLNCIVAVSQNMGIGKNGDLPWPPLRNEFKYFQRMTTTSSVEGKQNLVIMGRKTWFSIPEKNRPLKDRINIVLSRELKEPPRGAHFLAKSLDDALRLIEQPEL
Pdr5-F[3]
  fitness (PPiSeq, MTX(+), benign environment): 0.06

B5: Hom3-F[1,2] (other, UniProt P10869 1-527, looked up, not shown: small tags and cut ends)
chain: MPMDFQPTSSHSNWVVQKFGGTSVGKFPVQIVDDIVKHYSKPDGPNNNVAVVCSARSSYTKAEGTTSRLLKCCDLASQESEFQDIIEVIRQDHIDNADRFILNPALQAKLVDDTNKELELVKKYLNASKVLGEVSSRTVDLVMSCGEKLSCLFMTALCNDRGCKAKYVDLSHIVPSDFSASALDNSFYTFLVQALKEKLAPFVSAKERIVPVFTGFFGLVPTGLLNGVGRGYTDLCAALIAVAVNADELQVWKEVDGIFTADPRKVPEARLLDSVTPEEASELTYYGSEVIHPFTMEQVIRAKIPIRIKNVQNPLGNGTIIYPDNVAKKGESTPPHPPENLSSSFYEKRKRGATAITTKNDIFVINIHSNKKTLSHGFLAQIFTILDKYKLVVDLISTSEVHVSMALPIPDADSLKSLRQAEEKLRILGSVDITKKLSIVSLVGKHMKQYIGIAGTMFTTLAEEGINIEMISQGANEINISCVINESDSIKALQCIHAKLLSERTNTSNQFEHAIDERLEQLKRLGIVRPLNCIVAVSQNMGIGKNGDLPWPPLRNEFKYFQRMTTTSSVEGKQNLVIMGRKTWFSIPEKNRPLKDRINIVLSRELKEPPRGAHFLAKSLDDALRLIEQPEL
Fpr1-F[3]
  fitness in 50 µM FK506 against the benign environment (PPiSeq, MTX(+)): ~10 fold

B6: Ftr1 split Renilla luciferase (Rluc) PCA fusion (other, S. cerevisiae, UniProt P40088 1-404, looked up)
chain: MPNKVFNVAVFFVVFRECLEAVIVISVLLSFLKQAIGEHDRALYRKLRIQVWVGVLLGFIICLAIGAGFIGAYYSLQKDIFGSAEDLWEGIFCMIATIMISMMGIPMLRMNKMQSKWRVKIARSLVEIPHRKRDYFKIGFLSRRYAMFLLPFITVLREGLEAVVFVAGAGITTQGSHASAYPLPVVVGLICGGLVGYLLYYGASKSSLQIFLILSTSILYLISAGLFSRGAWYFENYRFNLASGGDASEGGDGNGSYNIRKAVYHVNCCNPELDNGWDIFNALLGWQNTGYLSSMLCYNIYWLVLIIVLSLMIFEERRGHLPFTKNLQLKHLNPGYWIKNKKKQELTEEQKRQLFAKMENINFNEDGEINVQENYELPEQTTSHSSSQNVATDKEVLHVKADSL
notes: whole, on cells; DHFR fragment of the Ftr1-F[1,2] strain replaced by an Rluc PCA fragment by homologous recombination; also called Ftr1 (Rluc PCA strain); not shown: linker of the pAG25/pAG32-linker-Rluc cassettes; Renilla luciferase PCA fragment; DHFR F[1,2] strains are said to receive Rluc F[2], but the next sentences call baits Rl
[1]
  binding result: binds
